The nature of series [1]: Solubility of the peptide in assay buffer / stock solutions. The class given is physicochemical. The following applies: HK50 buffer (80 mM Hepes pH 7.6, 50 mM KCl), at concentrations equal to or higher than 10 μM.
The target of series [2] is T1, 3h34P1 heptapeptide (L) (synthetic (Ph.D.-7 phage display)).
T1 chain: KNHDWGV
Briefly: tryptophan fluorescence quenching.

In series [3] the target is T1, 3h34P1 heptapeptide (L). Briefly: tryptophan fluorescence quenching.
The target in series [4] is T2, RsmC (rRNA small subunit methyltransferase C) (Escherichia coli (ASKA collection), UniProt P39406 1-343).
T2 sequence: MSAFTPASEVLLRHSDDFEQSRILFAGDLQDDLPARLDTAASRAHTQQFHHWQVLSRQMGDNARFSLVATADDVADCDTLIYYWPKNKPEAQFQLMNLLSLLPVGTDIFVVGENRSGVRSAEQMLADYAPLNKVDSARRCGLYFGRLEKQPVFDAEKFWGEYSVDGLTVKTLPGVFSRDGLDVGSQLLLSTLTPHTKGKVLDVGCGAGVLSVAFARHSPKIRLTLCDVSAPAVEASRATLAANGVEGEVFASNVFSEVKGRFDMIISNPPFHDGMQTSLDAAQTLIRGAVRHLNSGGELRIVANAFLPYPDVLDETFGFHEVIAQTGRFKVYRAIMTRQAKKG
The series can be described thus: FRET.

The target in series [5] is T1, 3h34P1 heptapeptide (L). Briefly: tryptophan fluorescence quenching.
The target of series [6] is T1, 3h34P1 heptapeptide (L). The series can be described thus: tryptophan fluorescence quenching.

Where two headings read alike, the source gives them in different places. Where a SMILES comes first, the peptide text is derived from it.

`CC(C)[C@H](NC(=O)CNC(=O)[C@H](Cc1c[nH]c2ccccc12)NC(=O)[C@H](CC(=O)O)NC(=O)[C@H](Cc1c[nH]cn1)NC(=O)[C@H](CC(N)=O)NC(=O)[C@@H](N)CCCCN)C(=O)O` [P1] (H-KNHDWGV-OH): the “Solubility in the buffer used for FRET titrations” value in series [1] is reported as “low solubility”.

As to GCCCUGAAAAGGGC (ssRNA) [Control RNA 1], the binding result in the series with 3h34P1 heptapeptide (L) [2] is “no binding”. As to GGUGCUGCAUGGCUGUCGG (ssRNA) [5h34], the binding result in the series with 3h34P1 heptapeptide (L) [3] is listed as “binds”.

As to CCGUCAAGUCAUCAUGGCCC (ssRNA) [3h34-Cy3], the binding result in series [4] was “binds”.

As for GAGGCCUUCGGGCCUC (ssRNA) [Control RNA 2], the binding result in the series with 3h34P1 heptapeptide (L) [5] was “no binding”.

Consider CCGUCAAGUCAUCAUGGCCC (ssRNA) [3h34], for which, in the series with 3h34P1 heptapeptide (L) [6], binding was characterised by a dissociation constant (Kd) of 18 ± 5 nM.

These data come from PMC9076165 (RSC Advances, 2019).
